In paper PMC11189301, “Structure of the human outer kinetochore KMN network complex” (Nature Structural & Molecular Biology, 2024):
Numbering of substitutions follows the chain as printed. In names and notes the source's numbering stands.

T1: Knl1 residues 1870–2342 (human, UniProt Q8NG31 1870-2342)
T1 construct: Knl1, human, 2,342-residue protein, residues 1870-2342; coordinates traced R2097–H2342; Subunit within the KMN network cryo-EM sample; also called extended version of the Knl1 C terminus; source: High-5 insect cells, expressed and purified as part of KNL1C
T1 sequence (looked up): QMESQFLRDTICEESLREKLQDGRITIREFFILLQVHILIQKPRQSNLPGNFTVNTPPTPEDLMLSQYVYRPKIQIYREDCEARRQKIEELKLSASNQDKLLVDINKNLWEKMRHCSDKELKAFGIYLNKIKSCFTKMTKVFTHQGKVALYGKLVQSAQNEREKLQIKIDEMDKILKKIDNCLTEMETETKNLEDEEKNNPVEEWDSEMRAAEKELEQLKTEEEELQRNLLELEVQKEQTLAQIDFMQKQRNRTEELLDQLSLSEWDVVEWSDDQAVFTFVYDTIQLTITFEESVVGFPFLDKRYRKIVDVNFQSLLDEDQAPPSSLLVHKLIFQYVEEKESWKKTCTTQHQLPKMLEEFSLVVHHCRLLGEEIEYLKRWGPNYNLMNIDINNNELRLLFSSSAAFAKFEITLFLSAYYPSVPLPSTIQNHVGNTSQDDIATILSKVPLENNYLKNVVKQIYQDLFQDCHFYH

B1: Nsl1 (natural protein, Homo sapiens, UniProt Q96IY1 1-281, looked up)
chain: MAGSPELVVLDPPWDKELAAGTESQALVSATPREDFRVRCTSKRAVTEMLQLCGRFVQKLGDALPEEIREPALRDAQWTFESAVQENISINGQAWQEASDNCFMDSDIKVLEDQFDEIIVDIATKRKQYPRKILECVIKTIKAKQEILKQYHPVVHPLDLKYDPDPAPHMENLKCRGETVAKEISEAMKSLPALIEQGEGFSQVLRMQPVIHLQRIHQEVFSSCHRKPDAKPENFITQIETTPTETASRKTSDMVLKRKQTKDCPQRKWYPLRPKKINLDT
notes: Nsl1, subunit of human MIS12C; Subunit within the KMN network cryo-EM sample; source: High-5 insect cells, expressed and purified as part of MIS12C
B2: Mis12 (natural protein, Homo sapiens, UniProt Q9H081 1-205, looked up)
chain: MSVDPMTYEAQFFGFTPQTCMLRIYIAFQDYLFEVMQAVEQVILKKLDGIPDCDISPVQIRKCTEKFLCFMKGHFDNLFSKMEQLFLQLILRIPSNILLPEDKCKETPYSEEDFQHLQKEIEQLQEKYKTELCTKQALLAELEEQKIVQAKLKQTLTFFDELHNVGRDHGTSDFRESLVSLVQNSRKLQNIRDNVEKESKRLKIS
notes: Mis12, subunit of human MIS12C; Subunit within the KMN network cryo-EM sample; source: High-5 insect cells, expressed and purified as part of MIS12C
B3: Spc25 (natural protein, Homo sapiens, UniProt Q9HBM1 1-224, looked up)
chain: MVEDELALFDKSINEFWNKFKSTDTSCQMAGLRDTYKDSIKAFAEKLSVKLKEEERMVEMFLEYQNQISRQNKLIQEKKDNLLKLIAEVKGKKQELEVLTANIQDLKEEYSRKKETISTANKANAERLKRLQKSADLYKDRLGLEIRKIYGEKLQFIFTNIDPKNPESPFMFSLHLNEARDYEVSDSAPHLEGLAEFQENVRKTNNFSAFLANVRKAFTATVYN
notes: Spc25, subunit of human NDC80C; coordinates traced D80–N224; Subunit within the KMN network cryo-EM sample; source: High-5 insect cells, expressed and purified as part of NDC80C
B4: Dsn1 (natural protein, Homo sapiens, UniProt Q9H410 1-356, looked up)
chain: MTSVTRSEIIDEKGPVMSKTHDHQLESSLSPVEVFAKTSASLEMNQGVSEERIHLGSSPKKGGNCDLSHQERLQSKSLHLSPQEQSASYQDRRQSWRRASMKETNRRKSLHPIHQGITELSRSISVDLAESKRLGCLLLSSFQFSIQKLEPFLRDTKGFSLESFRAKASSLSEELKHFADGLETDGTLQKCFEDSNGKASDFSLEASVAEMKEYITKFSLERQTWDQLLLHYQQEAKEILSRGSTEAKITEVKVEPMTYLGSSQNEVLNTKPDYQKILQNQSKVFDCMELVMDELQGSVKQLQAFMDESTQCFQKVSVQLGKRSMQQLDPSPARKLLKLQLQNPPAIHGSGSGSCQ
notes: Dsn1, subunit of human MIS12C; Subunit within the KMN network cryo-EM sample; residues N-terminal to Arg92 are disordered; source: High-5 insect cells, expressed and purified as part of MIS12C
B5: ZWINT (natural protein, human, UniProt O95229 1-277, looked up)
chain: MEAAETEAEAAALEVLAEVAGILEPVGLQEEAELPAKILVEFVVDSQKKDKLLCSQLQVADFLQNILAQEDTAKGLDPLASEDTSRQKAIAAKEQWKELKATYREHVEAIKIGLTKALTQMEEAQRKRTQLREAFEQLQAKKQMAMEKRRAVQNQWQLQQEKHLQHLAEVSAEVRERKTGTQQELDRVFQKLGNLKQQAEQERDKLQRYQTFLQLLYTLQGKLLFPEAEAEAENLPDDKPQQPTRPQEQSTGDTMGRDPGVSFKAVGLQPAGDVNLP
notes: ZWINT, human; coordinates traced Q183–G221; Subunit within the KMN network cryo-EM sample; source: High-5 insect cells, expressed and purified as part of KNL1C
B6: Knl1^mut2: Knl1 (2131–2337 construct) with S2270R S2272W substitutions (protein)
chain: SLSEWDVVEWSDDQAVFTFVYDTIQLTITFEESVVGFPFLDKRYRKIVDVNFQSLLDEDQAPPSSLLVHKLIFQYVEEKESWKKTCTTQHQLPKMLEEFSLVVHHCRLLGEEIEYLKRWGPNYNLMNIDINNNELRLLFRSWAAFAKFEITLFLSAYYPSVPLPSTIQNHVGNTSQDDIATILSKVPLENNYLKNVVKQIYQDLFQD
modifications: left off: His6, N-terminal, cleaved
notes: Knl1 (2131–2337 construct) with S2270R S2272W substitutions
B7: Knl1^mut1: Knl1 (2131–2337 construct) with R2248D W2249A substitutions (protein, UniProt Q8NG31 2131-2337, looked up, variant R2248D W2249A)
chain: B6 chain with R118D, W119A, R140S, W142S
B8: Knl1^mut3: Knl1 (2131–2337 construct) with S2270R S2272W R2248A W2249A substitutions (protein, UniProt Q8NG31 2131-2337, looked up, variant S2270R S2272W R2248A W2249A)
chain: B6 chain with R118A, W119A

How the values were obtained:
[1] = target: T1, Knl1 residues 1870–2342; experiment: cryo-EM structure; NDC80C, MIS12C and KNL1C mixed 1:1:1 and run on Superose 6 in 20 mM HEPES pH 8.0, 80 mM NaCl, 1 mM MgCl2, 1 mM TCEP; about 1 mg/ml on UltrAuFoil grids; 3.0 Å (MIS12C heads 3.8 Å); conditions: both partners purified
[2] = target: B4; experiment: as above; conditions: both partners purified
[3] = target: B1; experiment: as above; conditions: both partners purified
[4] = test system: MIS12C; experiment: SEC assessment of Knl1 mutants binding to MIS12C; design: species or system Homo sapiens; conditions: Knl1 (2131–2337) mutant + MIS12C at 4 µM each, 20 mM HEPES pH 7.8, 150 mM NaCl, 0.5 mM TCEP, Superose 6, at least two repeats
Procedure: Assessment of substitutions in the MIS12C–KNL1 interfaces
To test the effect of substitutions in the MIS12C–KNL1 interfaces, either wild-type MIS12C or MIS12C^Nsl1ΔC was mixed with either wild-type KNL1 or two mutants (KNL1^R2248D […] (KNL1^mut1), KNL1^S2270R S2272W (KNL1^mut2)) at 4 µM each in a buffer of 20 mM HEPES (pH 7.8), 150 mM NaCl and 0.5 mM TCEP, and 50 µl was loaded onto a Superose 6 size-exclusion column (Cytiva).
Extended Data Fig. 9 Biochemical validation of the MIS12C:Knl1 interface. a Coomassie blue-stained SDS-PAGE gels of the MIS12C:Knl1 interaction reconstitutions. MIS12C (WT) and MIS12C with Nsl1 truncated at the C-terminus (1–264 Nsl1 construct, MIS12C^Nsl1ΔC) were tested in their ability to bind either wild-type RWD domains of Knl1 (2131–2337 construct, labelled Knl1 for simplicity) or Knl1 mutants (R2248D/W2249S substitutions, Knl1^mut1, and S2270R/S2272W substitutions, Knl1^mut2, as well as S2270R/S2272W/R2248A/W2249S substitutions, Knl1^mut3). The binding experiments were repeated at least two independent times with identical results. The gels are aligned according to the fraction number of the protein sample eluted from the size exclusion column. b SEC elution chromatograms of all of the experiments described in (a). Source data

| Molecule | binding result [1] | binding result [2] | binding result [3] | MIS12C–Knl1 interaction by SEC, in words [4] | also measured |
| --- | --- | --- | --- | --- | --- |
| B1 | binds | binds |  |  |  |
| B2 |  | binds | binds |  |  |
| B3 |  | binds | binds |  |  |
| B4 | binds |  |  |  |  |
| B5 | binds |  | binds |  |  |
| B6 |  |  |  | did not importantly disrupt MIS12C–Knl1 interactions | MIS12C–Knl1 interaction by SEC, in words ([4]; listed as Knl1mut2): does not appear to reduce interaction with MIS12C |
| B7 |  |  |  | did not importantly disrupt MIS12C–Knl1 interactions |  |
| B8 |  |  |  | little to no change in the interaction |  |
